Assay [1] deals with T1, Met on human tumour cells (GTL-16, FaDu) (human, UniProt P08581 25-1390).
T1 construct: whole, on cells; Endogenous Met on 2% paraformaldehyde-fixed cells; also called Hepatocyte Growth Factor Receptor; HGFR
The experiment in a line: cell-binding assay (Lindmo), radiolabelled antibody on serial dilution of paraformaldehyde-fixed GTL-16 cells.

For assay [2], the target named is T1, Met on human tumour cells (GTL-16, FaDu). The experiment in a line: cell-binding assay (Lindmo), radiolabelled antibody on paraformaldehyde-fixed GTL-16 cells, double-reciprocal plot extrapolated.
For a further assay, the target named is T2, Met (UniProt P08581 25-932, limits assumed).
T2 construct: Target of the stated Kd; The assay and the construct are not described; also called Hepatocyte Growth Factor Receptor; HGFR

Assay [3] has as its target T1, Met on human tumour cells (GTL-16, FaDu). The experiment in a line: immunocytochemistry on fixed cytospins and immunohistochemistry on frozen xenograft sections, streptavidin-alkaline phosphatase.

The values below come from patent publication EP2127683A1 (Metheresis Translational Research SA, dated 2009).

T1 sequence (P08581 25-1390): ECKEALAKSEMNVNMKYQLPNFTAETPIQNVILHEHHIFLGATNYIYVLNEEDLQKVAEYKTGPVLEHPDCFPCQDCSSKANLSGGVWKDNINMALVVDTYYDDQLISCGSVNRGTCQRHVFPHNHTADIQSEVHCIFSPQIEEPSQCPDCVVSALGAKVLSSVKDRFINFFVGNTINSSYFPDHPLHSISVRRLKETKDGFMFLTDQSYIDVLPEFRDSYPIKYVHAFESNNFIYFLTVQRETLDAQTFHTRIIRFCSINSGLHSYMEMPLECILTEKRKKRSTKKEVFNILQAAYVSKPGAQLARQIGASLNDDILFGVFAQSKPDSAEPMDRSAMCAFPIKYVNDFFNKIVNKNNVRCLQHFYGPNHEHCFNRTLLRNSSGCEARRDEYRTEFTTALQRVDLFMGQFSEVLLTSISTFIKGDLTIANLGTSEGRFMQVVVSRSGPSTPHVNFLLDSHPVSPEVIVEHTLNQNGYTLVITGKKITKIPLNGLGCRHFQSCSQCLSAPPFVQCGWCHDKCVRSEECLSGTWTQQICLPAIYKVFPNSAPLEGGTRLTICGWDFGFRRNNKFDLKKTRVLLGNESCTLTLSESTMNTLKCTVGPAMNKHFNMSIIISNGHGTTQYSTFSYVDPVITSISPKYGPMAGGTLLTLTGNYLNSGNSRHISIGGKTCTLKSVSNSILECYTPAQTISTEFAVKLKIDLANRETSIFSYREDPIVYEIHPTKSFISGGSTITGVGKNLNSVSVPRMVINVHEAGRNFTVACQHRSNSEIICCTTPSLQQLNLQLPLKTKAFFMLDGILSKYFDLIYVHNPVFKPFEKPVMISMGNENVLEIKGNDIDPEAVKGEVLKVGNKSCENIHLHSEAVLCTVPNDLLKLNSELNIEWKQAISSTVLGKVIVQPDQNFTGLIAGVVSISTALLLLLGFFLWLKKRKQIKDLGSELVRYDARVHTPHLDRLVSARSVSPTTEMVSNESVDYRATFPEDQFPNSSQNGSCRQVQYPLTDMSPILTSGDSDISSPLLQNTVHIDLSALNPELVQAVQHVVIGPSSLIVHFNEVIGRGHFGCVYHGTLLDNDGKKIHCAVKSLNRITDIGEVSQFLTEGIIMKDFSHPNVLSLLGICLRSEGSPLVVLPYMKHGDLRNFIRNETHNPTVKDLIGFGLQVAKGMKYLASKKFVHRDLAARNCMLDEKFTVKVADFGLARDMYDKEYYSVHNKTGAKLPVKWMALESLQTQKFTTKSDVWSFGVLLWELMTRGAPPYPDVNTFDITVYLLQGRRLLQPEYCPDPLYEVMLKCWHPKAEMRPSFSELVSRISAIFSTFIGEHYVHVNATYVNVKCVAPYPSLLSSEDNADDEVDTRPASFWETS
T2 sequence (P08581 25-932 limits assumed): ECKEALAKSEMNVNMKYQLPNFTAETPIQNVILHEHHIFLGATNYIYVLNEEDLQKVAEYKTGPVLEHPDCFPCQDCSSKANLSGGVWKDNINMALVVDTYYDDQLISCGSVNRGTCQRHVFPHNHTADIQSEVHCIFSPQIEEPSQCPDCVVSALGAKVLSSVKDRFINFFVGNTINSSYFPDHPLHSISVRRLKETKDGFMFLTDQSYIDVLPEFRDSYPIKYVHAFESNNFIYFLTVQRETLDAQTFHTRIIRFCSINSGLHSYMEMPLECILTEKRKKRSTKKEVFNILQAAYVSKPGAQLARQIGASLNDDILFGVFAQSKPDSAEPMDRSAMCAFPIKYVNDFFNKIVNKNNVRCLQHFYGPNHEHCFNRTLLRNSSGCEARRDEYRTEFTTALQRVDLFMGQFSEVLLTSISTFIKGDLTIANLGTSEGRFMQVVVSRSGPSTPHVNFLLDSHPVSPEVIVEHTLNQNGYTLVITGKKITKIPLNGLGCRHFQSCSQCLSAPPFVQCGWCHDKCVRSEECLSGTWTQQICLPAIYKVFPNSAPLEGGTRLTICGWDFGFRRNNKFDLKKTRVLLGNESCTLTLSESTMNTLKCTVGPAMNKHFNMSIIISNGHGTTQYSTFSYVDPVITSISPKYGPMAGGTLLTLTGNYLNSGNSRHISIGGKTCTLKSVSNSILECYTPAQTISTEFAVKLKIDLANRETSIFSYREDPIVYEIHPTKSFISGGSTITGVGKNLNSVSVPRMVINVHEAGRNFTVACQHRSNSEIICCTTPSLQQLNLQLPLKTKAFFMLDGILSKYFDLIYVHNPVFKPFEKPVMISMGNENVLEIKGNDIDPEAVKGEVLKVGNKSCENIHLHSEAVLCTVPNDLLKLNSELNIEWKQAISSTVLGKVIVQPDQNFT

B1: 89Zr-N-sucDf-DN30 (antibody, mouse IgG2a, kappa, V domains shown)
VH: QVQLQQPGTELVKPGASVKLSCKASGYTFTSYWIHWVKQRPGQGLEWIGEINPSSGRTNYNEKFKNKVTVTVDKSSTTAYMQLSNLTSEDSAVYYCASRGYWGQGTTLTVSS
VL: DIVLTQSPASLAVSLGQRATISCKASQSVDYDGGSYMSWFQQRPGQPPKLLISAASNLESGIPARFSGSGSGTDFTLNIHPVEEEDVATYYCQQSYEDPLTFGAGTKLELKR
modifications: N-succinyl-desferal (N-sucDf) chelate carrying 89Zr coupled to lysine residues, approximately 1 N-sucDf moiety per DN30 molecule; positions not given
B1 yielded an immunoreactivity at the highest cell concentration in assay [1] of over 70%. Besides, the immunoreactivity at infinite antigen excess in assay [2] is over 95%.

B2: murine IgG2a MAb DN30 (antibody, V domains shown)
VH: B1 VH
VL: B1 VL
notes: Murine IgG2a from the hybridoma; also called anti-Met monoclonal antibody produced by the hybridoma cell line ICLC PD 05006
As for B2, the affinity with Met, expressed as Kd, was 2.64 nM.

B3: biotinylated DN30 (antibody, mouse IgG2a, kappa, V domains shown)
VH: B1 VH
VL: B1 VL
modifications: biotinylated; positions not given
On to B3, for which, in assay [3], the binding result is “binds”.

B4: 131I-DN30 (antibody, mouse IgG2a, kappa, V domains shown)
VH: B1 VH
VL: B1 VL
modifications: radioiodinated with 131I (IODO-GEN method); positions not given
On to B4, for which, in assay [1], the immunoreactivity at the highest cell concentration is over 70%. Further, the immunoreactivity at infinite antigen excess in assay [2] is over 95%.
